These are literature values, as cited in publication PMC11084152, “Galf-Specific Neolectins: Towards Promising Diagnostic Tools” (International Journal of Molecular Sciences, 2024).

Details of the data set: method as in PMID 26148048. The note with it: β-D-Galf-substituted surface; read-out: functional affinity value.

B1: hIntL-1: human intelectin-1, galactofuranosyl-binding lectin used as positive control (protein, UniProt Q8WWA0 19-298, looked up)
Intelectin-1: TDEANTYFKEWTCSSSPSLPRSCKEIKDECPSAFDGLYFLRTENGVIYQTFCDMTSGGGGWTLVASVHENDMRGKCTVGDRWSSQQGSKAVYPEGDGNWANYNTFGSAEAATSDDYKNPGYYDIQAKDLGIWHVPNKSPMQHWRNSSLLRYRTDTGFLQTLGHNLFGIYQKYPVKYGEGKCWTDNGPVIPVVYDFGDAQKTASYYSPYGQREFTAGFVQFRVFNNERAANALCAGMRVTGCNTEHHCIGGGGYFPEASPQQCGDFSGFDWSGYGTHVGYS
Take B1: the Kd is 85 ± 14 nM.
